Measured values from patent US20240010735A1 (EISAI R AND D MANAGEMENT, published 2024).

Tests used:
Experiment in all cases: ELISA: Fc-His proteins (1 nM) captured on anti-6-His antibody, antibody B 10 µg/mL with human IgG 100 µg/mL, HRP anti-human kappa light chain antibody, OD450 as % of mouse EphA4-Fc-His
[1] = molecular target: T1, mouse EphB6 extracellular region-Fc-His protein (mouse; human, UniProt O08644 33-591)
T1 construct: extracellular domain; not shown: Fc region of human IgG1; histidine tag
T1 sequence (looked up): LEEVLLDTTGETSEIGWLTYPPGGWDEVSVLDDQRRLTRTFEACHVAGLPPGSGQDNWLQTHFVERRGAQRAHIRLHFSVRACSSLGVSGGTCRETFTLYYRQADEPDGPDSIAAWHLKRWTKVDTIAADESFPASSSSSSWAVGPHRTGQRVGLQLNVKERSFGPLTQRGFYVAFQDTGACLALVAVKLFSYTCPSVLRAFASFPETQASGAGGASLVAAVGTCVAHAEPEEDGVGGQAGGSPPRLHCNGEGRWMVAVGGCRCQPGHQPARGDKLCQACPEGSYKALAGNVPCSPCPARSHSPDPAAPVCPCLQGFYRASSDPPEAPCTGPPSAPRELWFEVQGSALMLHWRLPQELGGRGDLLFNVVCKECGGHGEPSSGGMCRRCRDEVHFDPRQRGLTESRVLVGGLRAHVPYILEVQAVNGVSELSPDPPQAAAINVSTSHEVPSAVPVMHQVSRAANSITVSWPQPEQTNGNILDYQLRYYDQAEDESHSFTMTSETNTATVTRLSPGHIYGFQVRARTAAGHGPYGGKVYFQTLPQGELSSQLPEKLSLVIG

[2] = molecular target: T2, mouse EphB1 extracellular region-Fc-His protein (mouse; human, UniProt Q8CBF3 18-540)
T2 construct: extracellular domain; not shown: Fc region of human IgG1; histidine tag
T2 sequence (looked up): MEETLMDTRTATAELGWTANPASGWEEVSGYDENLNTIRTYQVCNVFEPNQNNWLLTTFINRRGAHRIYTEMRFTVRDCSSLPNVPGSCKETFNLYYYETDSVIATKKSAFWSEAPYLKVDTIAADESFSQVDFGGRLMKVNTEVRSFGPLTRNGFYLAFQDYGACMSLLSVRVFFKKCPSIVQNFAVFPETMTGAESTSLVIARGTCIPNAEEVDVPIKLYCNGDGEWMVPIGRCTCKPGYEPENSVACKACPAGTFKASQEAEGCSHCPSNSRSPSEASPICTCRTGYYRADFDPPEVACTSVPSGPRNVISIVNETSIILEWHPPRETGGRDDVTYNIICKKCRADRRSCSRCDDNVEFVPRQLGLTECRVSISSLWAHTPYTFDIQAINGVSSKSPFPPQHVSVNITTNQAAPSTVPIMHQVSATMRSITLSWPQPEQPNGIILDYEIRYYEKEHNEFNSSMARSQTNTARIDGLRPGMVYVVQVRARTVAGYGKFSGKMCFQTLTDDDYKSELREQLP

[3] = molecular target: T3, mouse EphA10 extracellular region-Fc-His protein (mouse; human, UniProt Q8BYG9 23-565)
T3 construct: extracellular domain; not shown: Fc region of human IgG1; histidine tag
T3 sequence (looked up): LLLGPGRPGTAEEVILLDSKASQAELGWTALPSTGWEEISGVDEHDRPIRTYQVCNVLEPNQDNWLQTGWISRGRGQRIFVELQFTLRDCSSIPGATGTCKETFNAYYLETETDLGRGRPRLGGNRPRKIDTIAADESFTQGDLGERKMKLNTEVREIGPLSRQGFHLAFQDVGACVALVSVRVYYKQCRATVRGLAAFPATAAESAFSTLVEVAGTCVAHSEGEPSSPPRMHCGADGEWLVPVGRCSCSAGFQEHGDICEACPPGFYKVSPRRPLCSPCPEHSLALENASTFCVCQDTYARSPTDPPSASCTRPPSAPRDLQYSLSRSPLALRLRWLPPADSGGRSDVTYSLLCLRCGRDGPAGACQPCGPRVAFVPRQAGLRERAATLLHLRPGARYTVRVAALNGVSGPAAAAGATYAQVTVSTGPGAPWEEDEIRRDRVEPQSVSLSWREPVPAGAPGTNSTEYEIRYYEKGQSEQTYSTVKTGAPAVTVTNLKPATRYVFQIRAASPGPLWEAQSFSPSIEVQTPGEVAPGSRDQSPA

Measured: binding result

B1: humanized anti-EphA4 monoclonal antibody (antibody B) (antibody, human IgG2, V domains shown)
VH: QVQLVESGGGVVQPGRSLRLSCAVSGFSLTRFGVHWVRQAPGKGLEWVAVIWRGGSTDYNAAFMSRLTISKDNSKNTVYLQMNSLRAEDTAVYYCAKESLFGVYYDYGYYSMDYWGQGTTVTVSS
VL: DIQMTQSPSSLSASVGDRVTITCRASQEISGYLSWLQQKPGKAPKRLIYAASTLDSGVPSRFSGSRSGTEYTLTISSLQPEDFATYYCLQYASYPLTFGGGTKVEIKR
notes: expressed in Expi293F cells; also called humanized antibody of antibody A; HK2-42 / L1-8
no binding (tested: 10 µg/mL): all assays above
